Experimental findings from article PMC2680043, “Characterization of a Novel Small Molecule Subtype Specific Estrogen-Related Receptor α Antagonist in MCF-7 Breast Cancer Cells” (PLoS ONE, 2009) are described below.

Common to all, as to assay: pull-down; biotinylated coactivator RID bound to streptavidin beaded agarose; in vitro translated [35S]-labeled ERRα added in 1x TBS with 10 µM Compound A, 4 hours at 4°C; SDS gel, phosphorimaging; compared with the DMSO sample
Settings in all cases: one partner purified

The target in test [1] is T1, PGC-1α receptor interaction domain (RID), aa 1-338, biotinylated (UniProt Q9UBK2 1-338, biotinylated (sites not given)).
T1 construct: also called PGC-1α RID; PPARGC1A
T1 sequence (looked up): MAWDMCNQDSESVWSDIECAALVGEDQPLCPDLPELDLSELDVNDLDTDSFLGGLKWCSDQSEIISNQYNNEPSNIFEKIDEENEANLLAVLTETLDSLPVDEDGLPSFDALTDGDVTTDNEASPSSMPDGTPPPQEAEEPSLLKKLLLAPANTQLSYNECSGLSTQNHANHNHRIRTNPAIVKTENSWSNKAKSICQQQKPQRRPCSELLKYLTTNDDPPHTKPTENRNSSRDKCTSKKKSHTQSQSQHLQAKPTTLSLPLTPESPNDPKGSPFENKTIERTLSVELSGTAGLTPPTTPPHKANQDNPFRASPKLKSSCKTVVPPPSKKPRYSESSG

Test [2] addresses T2, GRIP-1 receptor interaction domain (RID), aa 565-798, biotinylated (UniProt Q61026 565-798, biotinylated (sites not given)).
T2 construct: also called GRIP-1 RID; SRC-2
T2 sequence (looked up): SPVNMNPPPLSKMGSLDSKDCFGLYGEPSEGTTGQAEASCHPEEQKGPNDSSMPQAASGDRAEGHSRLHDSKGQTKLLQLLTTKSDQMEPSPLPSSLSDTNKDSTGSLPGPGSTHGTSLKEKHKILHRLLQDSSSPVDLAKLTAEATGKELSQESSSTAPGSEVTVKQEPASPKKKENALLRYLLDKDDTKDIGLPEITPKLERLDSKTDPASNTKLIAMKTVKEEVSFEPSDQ

Test [3] deals with T3, AIB1 receptor interaction domain (RID), aa 557-773, biotinylated (UniProt Q9Y6Q9 557-773, biotinylated (sites not given)).
T3 construct: also called AIB1 RID; SRC-3
T3 sequence (looked up): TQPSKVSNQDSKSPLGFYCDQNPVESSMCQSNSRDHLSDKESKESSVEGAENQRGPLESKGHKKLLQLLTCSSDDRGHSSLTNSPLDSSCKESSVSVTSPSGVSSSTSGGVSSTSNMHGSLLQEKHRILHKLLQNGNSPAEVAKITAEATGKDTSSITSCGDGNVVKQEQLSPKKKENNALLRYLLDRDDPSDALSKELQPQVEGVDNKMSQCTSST

B1: full-length human estrogen-related receptor α (ERRα), [35S]methionine-labeled (receptor, UniProt P11474 1-423, looked up)
chain: MSSQVVGIEPLYIKAEPASPDSPKGSSETETEPPVALAPGPAPTRCLPGHKEEEDGEGAGPGEQGGGKLVLSSLPKRLCLVCGDVASGYHYGVASCEACKAFFKRTIQGSIEYSCPASNECEITKRRRKACQACRFTKCLRVGMLKEGVRLDRVRGGRQKYKRRPEVDPLPFPGPFPAGPLAVAGGPRKTAAPVNALVSHLLVVEPEKLYAMPDPAGPDGHLPAVATLCDLFDREIVVTISWAKSIPGFSSLSLSDQMSVLQSVWMEVLVLGVAQRSLPLQDELAFAEDLVLDEEGARAAGLGELGAALLQLVRRLQALRLEREEYVLLKALALANSDSVHIEDAEAVEQLREALHEALLEYEAGRAGPGGGAERRRAGRLLLTLPLLRQTAGKVLAHFYGVKLEGKVPMHKLFLEMLEAMMD
modifications: [35S]methionine label
notes: estrogen-related receptor alpha, human, full length, amplified from human brain Marathon-ready cDNA and cloned into pcDNA3.1(+); No tag is named for this construct; also called hERRα; ESRRA; source: in vitro translated (TnT coupled reticulocyte lysate system, Promega), [35S]methionine added
In the case of B1, the entries for the “percent reduction of the interaction with 10 µM Compound A against vehicle (DMSO)” value in test [1], in test [2] and in test [3] were 81%, 29% and 35%, respectively.
